# Reference: PMC2699623 (Structure (London, England : 1993), 2009)
# B1: ALIX_(Vmut2) (domain or fragment)
# chain: PVSVQQSLAAYNQRKADLVNRSIAQMREATTLANGVLASLNLPAAIEDVSGDTVPQSILTKSRSVIEQGGIQTVDQLIKELPELLQRNREILDESLRLLDEEEATDNDLRAKFKERWQRTPSNELYKPLRAEGTNFRTVLDKAVQADGQVKECYQSHRDTIVLLCKPEPELNAAIPSANPAKTMQGSEVVNVLKSLLSNLDEVKKEREGLENDLKSVNFDMTSKFLTALAQDGVINEEALSVTELDRVYGGLTTKVQESLKKQEGLLKNIQVSHQEFSKMKQSYKKANLREEVLKNLATAYDNFVELVANLKEGTKFYNELTEILVRFQNKCSDIVFARKTER
# Key:
# [1] = biological target: peptide derived from EIAV Gag p9 (equine infectious anemia virus (EIAV)); test: ITC
# [2] = biological target: ALIX_(Bro1-V), ALIX lacking the proline rich domain (monomeric form); test: SEC-MALS
# [3] = biological target: ALIXV, the middle domain (V-domain) of ALIX (monomeric form) (UniProt Q8WUM4); test: SEC-MALS
# [4] = biological target: the molecule itself; test: SEC-MALS
molecule,measurement,setting,value
dimeric ALIXV (from UniProt Q8WUM4 360-702) (complex),Kd,[1],8 µM
"ALIX_(Bro1-V), ALIX lacking the proline rich domain (monomeric form) (domain or fragment)",stoichiometry N,[2],2
"ALIXV, the middle domain (V-domain) of ALIX (monomeric form) (from UniProt Q8WUM4 360-702) (domain or fragment)",stoichiometry N,[3],2
B1,stoichiometry N,[4],2
